According to PMC2189183:
Where two headings read alike, the source gives them in different places.

Legend:
Test in all cases: conjugate formation
[1] = biological target: HLA class I antigens of JY cells (human (endogenous in JY)) (UniProt P04439)
[2] = biological target: HLA class I antigens of JY cells (human (endogenous in JY)) (UniProt P04439); remark: listed apart in the source
[3] = biological target: HLA class I antigens of JY cells (human (endogenous in JY)) (UniProt P04439); remark: listed apart in the source

Chain of UniProt P04439 (P04439 whole entry, looked up): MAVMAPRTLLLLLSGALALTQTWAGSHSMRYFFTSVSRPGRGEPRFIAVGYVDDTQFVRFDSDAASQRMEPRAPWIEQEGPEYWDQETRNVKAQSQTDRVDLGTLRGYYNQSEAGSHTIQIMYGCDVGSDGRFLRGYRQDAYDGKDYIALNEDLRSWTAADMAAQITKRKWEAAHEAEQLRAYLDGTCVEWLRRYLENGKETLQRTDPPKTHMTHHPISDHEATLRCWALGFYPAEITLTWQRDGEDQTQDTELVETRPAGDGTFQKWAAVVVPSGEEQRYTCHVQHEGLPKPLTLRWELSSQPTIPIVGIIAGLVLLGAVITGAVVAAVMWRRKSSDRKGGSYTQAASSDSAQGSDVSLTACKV

Question: With “CD8 (human CD8 expressed in the murine T cell hybridoma 16.T8-15) (from UniProt P01732 22-235) (receptor)” as the substance, how does the percent conjugates [1] read?
Answer: Its percent conjugates is 29%.

Question: And the percent conjugates [2]?
Answer: Its percent conjugates is 22%.

Question: And the percent conjugates [3]?
Answer: The percent conjugates was 42%.
